# Data taken from patent publication US20110105394A1 (Novo Nordisk, published 2011).
# *1 amine or outer side, *2 acyl side, *3 side chain or, on linkers, in order; H or OH if unused. Bridges are numbered along the chain shown (N, C = ends). Where no end group is shown, it is not given here. The star is where a group is joined. C20 diacid = O=C(O)CCCCCCCCCCCCCCCCCCC(=O)*; γGlu = O=C(O)[C@H](CCC(=O)[*:2])N[*:1]; AEEA = NCCOCCOCC(=O)O
# T1: Amylin 3(a) receptor (human calcitonin receptor (CTa) with RAMP-3) (human, UniProt P30988 25-474; O60896 24-148, limits assumed)
# T1 sequence (looked up) 1: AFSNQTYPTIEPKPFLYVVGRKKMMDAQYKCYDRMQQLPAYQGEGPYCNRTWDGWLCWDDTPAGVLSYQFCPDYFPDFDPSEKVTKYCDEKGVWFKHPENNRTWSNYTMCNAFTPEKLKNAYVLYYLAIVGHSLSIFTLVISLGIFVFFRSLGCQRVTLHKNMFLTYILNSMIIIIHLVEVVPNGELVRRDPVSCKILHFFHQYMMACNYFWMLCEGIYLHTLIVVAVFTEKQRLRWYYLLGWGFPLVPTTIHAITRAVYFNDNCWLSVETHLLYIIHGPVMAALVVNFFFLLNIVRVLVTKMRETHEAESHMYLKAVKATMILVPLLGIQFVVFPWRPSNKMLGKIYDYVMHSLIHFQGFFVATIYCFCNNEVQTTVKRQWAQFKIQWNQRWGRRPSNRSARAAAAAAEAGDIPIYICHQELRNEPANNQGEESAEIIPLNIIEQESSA
# T1 sequence (looked up) 2: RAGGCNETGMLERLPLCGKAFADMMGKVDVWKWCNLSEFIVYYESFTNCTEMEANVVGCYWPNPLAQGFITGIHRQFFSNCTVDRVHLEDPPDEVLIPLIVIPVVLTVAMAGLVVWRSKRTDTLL
# Molecular target: T1, Amylin 3(a) receptor (human calcitonin …)
# Assay: cell-based or functional assay
row,Binder,Potency Luciferase [nM]
1,{C20 diacid-γGlu-AEEA}-HHRCNTATCATQRLANFLHHSSNNFGPILPPTNVGSNTY-NH2 (disulfide 4-9; SMILES CC[C@H](C)[C@H](NC(=O)[C@@H]1CCCN1C(=O)CNC(=O)[C@H](Cc1ccccc1)NC(=O)[C@H](CC(N)=O)NC(=O)[C@H](CC(N)=O)NC(=O)[C@H](CO)NC(=O)[C@H](CO)NC(=O)[C@H](Cc1c[nH]cn1)NC(=O)[C@H](Cc1c[nH]cn1)NC(=O)[C@H](CC(C)C)NC(=O)[C@H](Cc1ccccc1)NC(=O)[C@H](CC(N)=O)NC(=O)[C@H](C)NC(=O)[C@H](CC(C)C)NC(=O)[C@H](CCCNC(=N)N)NC(=O)[C@H](CCC(N)=O)NC(=O)[C@@H](NC(=O)[C@H](C)NC(=O)[C@@H]1CSSC[C@H](NC(=O)[C@H](CCCNC(=N)N)NC(=O)[C@H](Cc2c[nH]cn2)NC(=O)[C@H](Cc2c[nH]cn2)NC(=O)COCCOCCNC(=O)CC[C@H](NC(=O)CCCCCCCCCCCCCCCCCCC(=O)O)C(=O)O)C(=O)N[C@@H](CC(N)=O)C(=O)N[C@@H]([C@@H](C)O)C(=O)N[C@@H](C)C(=O)N[C@@H]([C@@H](C)O)C(=O)N1)[C@@H](C)O)C(=O)N[C@@H](CC(C)C)C(=O)N1CCC[C@H]1C(=O)N1CCC[C@H]1C(=O)N[C@H](C(=O)N[C@@H](CC(N)=O)C(=O)N[C@H](C(=O)NCC(=O)N[C@@H](CO)C(=O)N[C@@H](CC(N)=O)C(=O)N[C@H](C(=O)N[C@@H](Cc1ccc(O)cc1)C(N)=O)[C@@H](C)O)C(C)C)[C@@H](C)O),0.09
2,{C20 diacid-γGlu-AEEA}-HHRCNTATCATQRLANFLRHSSNNFGPILPPTNVGSNTY-NH2 (disulfide 4-9; SMILES CC[C@H](C)[C@H](NC(=O)[C@@H]1CCCN1C(=O)CNC(=O)[C@H](Cc1ccccc1)NC(=O)[C@H](CC(N)=O)NC(=O)[C@H](CC(N)=O)NC(=O)[C@H](CO)NC(=O)[C@H](CO)NC(=O)[C@H](Cc1c[nH]cn1)NC(=O)[C@H](CCCNC(=N)N)NC(=O)[C@H](CC(C)C)NC(=O)[C@H](Cc1ccccc1)NC(=O)[C@H](CC(N)=O)NC(=O)[C@H](C)NC(=O)[C@H](CC(C)C)NC(=O)[C@H](CCCNC(=N)N)NC(=O)[C@H](CCC(N)=O)NC(=O)[C@@H](NC(=O)[C@H](C)NC(=O)[C@@H]1CSSC[C@H](NC(=O)[C@H](CCCNC(=N)N)NC(=O)[C@H](Cc2c[nH]cn2)NC(=O)[C@H](Cc2c[nH]cn2)NC(=O)COCCOCCNC(=O)CC[C@H](NC(=O)CCCCCCCCCCCCCCCCCCC(=O)O)C(=O)O)C(=O)N[C@@H](CC(N)=O)C(=O)N[C@@H]([C@@H](C)O)C(=O)N[C@@H](C)C(=O)N[C@@H]([C@@H](C)O)C(=O)N1)[C@@H](C)O)C(=O)N[C@@H](CC(C)C)C(=O)N1CCC[C@H]1C(=O)N1CCC[C@H]1C(=O)N[C@H](C(=O)N[C@@H](CC(N)=O)C(=O)N[C@H](C(=O)NCC(=O)N[C@@H](CO)C(=O)N[C@@H](CC(N)=O)C(=O)N[C@H](C(=O)N[C@@H](Cc1ccc(O)cc1)C(N)=O)[C@@H](C)O)C(C)C)[C@@H](C)O),0.3
3,{C20 diacid-γGlu-AEEA}-HHRCNTATCATQRLANFLHHSSQNFGPILPPTNVGSNTY-NH2 (disulfide 4-9; SMILES CC[C@H](C)[C@H](NC(=O)[C@@H]1CCCN1C(=O)CNC(=O)[C@H](Cc1ccccc1)NC(=O)[C@H](CC(N)=O)NC(=O)[C@H](CCC(N)=O)NC(=O)[C@H](CO)NC(=O)[C@H](CO)NC(=O)[C@H](Cc1c[nH]cn1)NC(=O)[C@H](Cc1c[nH]cn1)NC(=O)[C@H](CC(C)C)NC(=O)[C@H](Cc1ccccc1)NC(=O)[C@H](CC(N)=O)NC(=O)[C@H](C)NC(=O)[C@H](CC(C)C)NC(=O)[C@H](CCCNC(=N)N)NC(=O)[C@H](CCC(N)=O)NC(=O)[C@@H](NC(=O)[C@H](C)NC(=O)[C@@H]1CSSC[C@H](NC(=O)[C@H](CCCNC(=N)N)NC(=O)[C@H](Cc2c[nH]cn2)NC(=O)[C@H](Cc2c[nH]cn2)NC(=O)COCCOCCNC(=O)CC[C@H](NC(=O)CCCCCCCCCCCCCCCCCCC(=O)O)C(=O)O)C(=O)N[C@@H](CC(N)=O)C(=O)N[C@@H]([C@@H](C)O)C(=O)N[C@@H](C)C(=O)N[C@@H]([C@@H](C)O)C(=O)N1)[C@@H](C)O)C(=O)N[C@@H](CC(C)C)C(=O)N1CCC[C@H]1C(=O)N1CCC[C@H]1C(=O)N[C@H](C(=O)N[C@@H](CC(N)=O)C(=O)N[C@H](C(=O)NCC(=O)N[C@@H](CO)C(=O)N[C@@H](CC(N)=O)C(=O)N[C@H](C(=O)N[C@@H](Cc1ccc(O)cc1)C(N)=O)[C@@H](C)O)C(C)C)[C@@H](C)O),0.06

# Further lines, results first:
row,Potency Luciferase [nM],Binder
1,0.2,"{C20 diacid-γGlu}-ECNTATCATQRLANFLHHSSNNFGPILPPTNVGSNTY-NH2 (disulfide 2-7; SMILES CC[C@H](C)[C@H](NC(=O)[C@@H]1CCCN1C(=O)CNC(=O)[C@H](Cc1ccccc1)NC(=O)[C@H](CC(N)=O)NC(=O)[C@H](CC(N)=O)NC(=O)[C@H](CO)NC(=O)[C@H](CO)NC(=O)[C@H](Cc1c[nH]cn1)NC(=O)[C@H](Cc1c[nH]cn1)NC(=O)[C@H](CC(C)C)NC(=O)[C@H](Cc1ccccc1)NC(=O)[C@H](CC(N)=O)NC(=O)[C@H](C)NC(=O)[C@H](CC(C)C)NC(=O)[C@H](CCCNC(=N)N)NC(=O)[C@H](CCC(N)=O)NC(=O)[C@@H](NC(=O)[C@H](C)NC(=O)[C@@H]1CSSC[C@H](NC(=O)[C@H](CCC(=O)O)NC(=O)CC[C@H](NC(=O)CCCCCCCCCCCCCCCCCCC(=O)O)C(=O)O)C(=O)N[C@@H](CC(N)=O)C(=O)N[C@@H]([C@@H](C)O)C(=O)N[C@@H](C)C(=O)N[C@@H]([C@@H](C)O)C(=O)N1)[C@@H](C)O)C(=O)N[C@@H](CC(C)C)C(=O)N1CCC[C@H]1C(=O)N1CCC[C@H]1C(=O)N[C@H](C(=O)N[C@@H](CC(N)=O)C(=O)N[C@H](C(=O)NCC(=O)N[C@@H](CO)C(=O)N[C@@H](CC(N)=O)C(=O)N[C@H](C(=O)N[C@@H](Cc1ccc(O)cc1)C(N)=O)[C@@H](C)O)C(C)C)[C@@H](C)O) [N-alpha-[(S)-4-Carboxy-4-(19-carboxynonadecanoylamino)butyryl]-[Glu 1,His17]-pramlintide]"
2,0.08,"RCNTATCATQRLANFLHHSSNNFGPILPPTNVGSNTY-NH2 (disulfide 2-7; not fully specified (N-terminus); printed as N-alpha-[3-(2-{2-[2-(2-{2-[2-(2-{2-[(S)-4-Carboxy-4-(17-carboxyheptadecanoylamino) butyrylamino]ethoxy}ethoxy)ethoxy]ethoxy}ethoxy)ethoxy]ethoxy}ethoxy)propionylamino][Arg1,His17]-pramlintide) [N-alpha-[3-(2-{2-[2-(2-{2-[2-(2-{2-[(S)-4-Carboxy-4-(17-carboxyheptadecanoylamino) …]"
3,0.06,"{C20 diacid-γGlu}-CNTATCATQRLANFLHHSSNNFGPILPPTDVGSNTY-NH2 (disulfide 1-6; SMILES CC[C@H](C)[C@H](NC(=O)[C@@H]1CCCN1C(=O)CNC(=O)[C@H](Cc1ccccc1)NC(=O)[C@H](CC(N)=O)NC(=O)[C@H](CC(N)=O)NC(=O)[C@H](CO)NC(=O)[C@H](CO)NC(=O)[C@H](Cc1c[nH]cn1)NC(=O)[C@H](Cc1c[nH]cn1)NC(=O)[C@H](CC(C)C)NC(=O)[C@H](Cc1ccccc1)NC(=O)[C@H](CC(N)=O)NC(=O)[C@H](C)NC(=O)[C@H](CC(C)C)NC(=O)[C@H](CCCNC(=N)N)NC(=O)[C@H](CCC(N)=O)NC(=O)[C@@H](NC(=O)[C@H](C)NC(=O)[C@@H]1CSSC[C@H](NC(=O)CC[C@H](NC(=O)CCCCCCCCCCCCCCCCCCC(=O)O)C(=O)O)C(=O)N[C@@H](CC(N)=O)C(=O)N[C@@H]([C@@H](C)O)C(=O)N[C@@H](C)C(=O)N[C@@H]([C@@H](C)O)C(=O)N1)[C@@H](C)O)C(=O)N[C@@H](CC(C)C)C(=O)N1CCC[C@H]1C(=O)N1CCC[C@H]1C(=O)N[C@H](C(=O)N[C@@H](CC(=O)O)C(=O)N[C@H](C(=O)NCC(=O)N[C@@H](CO)C(=O)N[C@@H](CC(N)=O)C(=O)N[C@H](C(=O)N[C@@H](Cc1ccc(O)cc1)C(N)=O)[C@@H](C)O)C(C)C)[C@@H](C)O) [N-alpha-[(S)-4-Carboxy-4-(19-carboxynonadecanoylamino)butyryl]-[His17,Asp31]-pramlintide (2-37)]"
4,0.3,"{C20 diacid-γGlu}-RCNTATCATQRLANFLHHSSNNFGPILPPTNVGSNTY-NH2 (disulfide 2-7; SMILES CC[C@H](C)[C@H](NC(=O)[C@@H]1CCCN1C(=O)CNC(=O)[C@H](Cc1ccccc1)NC(=O)[C@H](CC(N)=O)NC(=O)[C@H](CC(N)=O)NC(=O)[C@H](CO)NC(=O)[C@H](CO)NC(=O)[C@H](Cc1c[nH]cn1)NC(=O)[C@H](Cc1c[nH]cn1)NC(=O)[C@H](CC(C)C)NC(=O)[C@H](Cc1ccccc1)NC(=O)[C@H](CC(N)=O)NC(=O)[C@H](C)NC(=O)[C@H](CC(C)C)NC(=O)[C@H](CCCNC(=N)N)NC(=O)[C@H](CCC(N)=O)NC(=O)[C@@H](NC(=O)[C@H](C)NC(=O)[C@@H]1CSSC[C@H](NC(=O)[C@H](CCCNC(=N)N)NC(=O)CC[C@H](NC(=O)CCCCCCCCCCCCCCCCCCC(=O)O)C(=O)O)C(=O)N[C@@H](CC(N)=O)C(=O)N[C@@H]([C@@H](C)O)C(=O)N[C@@H](C)C(=O)N[C@@H]([C@@H](C)O)C(=O)N1)[C@@H](C)O)C(=O)N[C@@H](CC(C)C)C(=O)N1CCC[C@H]1C(=O)N1CCC[C@H]1C(=O)N[C@H](C(=O)N[C@@H](CC(N)=O)C(=O)N[C@H](C(=O)NCC(=O)N[C@@H](CO)C(=O)N[C@@H](CC(N)=O)C(=O)N[C@H](C(=O)N[C@@H](Cc1ccc(O)cc1)C(N)=O)[C@@H](C)O)C(C)C)[C@@H](C)O) [N-alpha-[(S)-4-Carboxy-4-(19-carboxynonadecanoylamino)butyryl]-[Arg1,His17]-pramlintide]"
